Numbering of substitutions follows the chain as printed.
Columns and labels:
[1] = target: T1, SPEN RRM 1-4 (Homo sapiens) (UniProt Q96T58); assay: EMSA; conditions: EMSA: 20 mM Tris-HCl pH 7.5, 150 mM KCl, 5 mM MgCl2, 10% glycerol, room temperature 30 min, 2 nM each labeled RNA (multiplexed), 4.5% TBE native gel
T1 sequence: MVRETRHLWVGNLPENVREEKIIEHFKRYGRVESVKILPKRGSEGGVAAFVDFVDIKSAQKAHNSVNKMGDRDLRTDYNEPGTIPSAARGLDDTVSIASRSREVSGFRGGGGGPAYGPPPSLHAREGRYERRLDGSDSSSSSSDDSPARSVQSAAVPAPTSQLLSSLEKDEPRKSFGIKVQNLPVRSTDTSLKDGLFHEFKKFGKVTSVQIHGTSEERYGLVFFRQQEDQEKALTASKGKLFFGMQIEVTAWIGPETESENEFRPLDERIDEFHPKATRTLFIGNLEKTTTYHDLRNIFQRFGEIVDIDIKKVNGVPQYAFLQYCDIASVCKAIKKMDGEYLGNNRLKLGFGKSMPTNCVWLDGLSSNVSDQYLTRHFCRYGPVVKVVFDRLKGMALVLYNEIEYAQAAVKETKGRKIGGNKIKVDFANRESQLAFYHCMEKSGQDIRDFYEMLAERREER

[2] = target: T2, SPEN RRM 2-4 (Homo sapiens) (UniProt Q96T58); assay: EMSA; conditions: EMSA: 20 mM Tris-HCl pH 7.5, 150 mM KCl, 5 mM MgCl2, 10% glycerol, room temperature 30 min, 2 nM each labeled RNA (multiplexed), 4.5% TBE native gel
T2 sequence: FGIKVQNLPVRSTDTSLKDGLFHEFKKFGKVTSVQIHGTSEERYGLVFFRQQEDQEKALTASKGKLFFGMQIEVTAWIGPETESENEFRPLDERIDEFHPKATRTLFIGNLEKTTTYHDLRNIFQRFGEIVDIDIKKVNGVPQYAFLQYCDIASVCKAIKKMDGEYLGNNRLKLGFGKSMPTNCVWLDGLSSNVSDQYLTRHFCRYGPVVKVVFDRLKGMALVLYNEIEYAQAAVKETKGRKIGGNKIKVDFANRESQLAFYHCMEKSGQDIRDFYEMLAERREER

[3] = target: T3, SPEN RRM 2-4 mut3 F282A;K311A;Y319A;F321A;K353A (Homo sapiens) (UniProt Q96T58); assay: EMSA; conditions: EMSA: 20 mM Tris-HCl pH 7.5, 150 mM KCl, 5 mM MgCl2, 10% glycerol, room temperature 30 min, 2 nM each labeled RNA (multiplexed), 4.5% TBE native gel
T3 sequence: T2 sequence with F107A, K136A, Y144A, F146A, K178A

[4] = target: T4, SPEN RRM 2-4 (Homo sapiens, UniProt Q96T58); assay: EMSA; Hill 10; EMSA: 20 mM Tris-HCl pH 7.5, 150 mM KCl, 5 mM MgCl2, 10% glycerol, room temperature 30 min, 2 nM each labeled RNA (multiplexed), 4.5% TBE native gel; conditions: protein: recombinant; tags: 6xHis-MBP-TEV at N-terminus, removed by TEV cleavage; label: internal Cy3-, Cy5- or fluorescein-UTP
T4 sequence: T2 sequence

[5] = target: T5, SPEN RRM 2-4 mut3 (Homo sapiens, UniProt Q96T58, F282A;K311A;Y319A;F321A;K353A); assay: EMSA; Hill 2; text: loss of binding (Kd >1000 nM); EMSA: 20 mM Tris-HCl pH 7.5, 150 mM KCl, 5 mM MgCl2, 10% glycerol, room temperature 30 min, 2 nM each labeled RNA (multiplexed), 4.5% TBE native gel; conditions: protein: recombinant; tags: 6xHis-MBP-TEV at N-terminus, removed by TEV cleavage; label: internal Cy3-, Cy5- or fluorescein-UTP
T5 sequence: T2 sequence with F107A, K136A, Y144A, F146A, K178A

[6] = target: T6, SPEN RRM 1-4 (Homo sapiens, UniProt Q96T58); assay: EMSA; Hill 1; EMSA: 20 mM Tris-HCl pH 7.5, 150 mM KCl, 5 mM MgCl2, 10% glycerol, room temperature 30 min, 2 nM each labeled RNA (multiplexed), 4.5% TBE native gel; conditions: protein: recombinant, tags: 6xHis-MBP-TEV at N-terminus, removed by TEV cleavage
T6 sequence: T1 sequence

[7] = target: T6, SPEN RRM 1-4; assay: EMSA; Hill 2; EMSA: 20 mM Tris-HCl pH 7.5, 150 mM KCl, 5 mM MgCl2, 10% glycerol, room temperature 30 min, 2 nM each labeled RNA (multiplexed), 4.5% TBE native gel; conditions: protein: recombinant; tags: 6xHis-MBP-TEV at N-terminus, removed by TEV cleavage; label: internal fluorophore-UTP
[8] = target: T6, SPEN RRM 1-4; assay: EMSA; Hill 5; EMSA: 20 mM Tris-HCl pH 7.5, 150 mM KCl, 5 mM MgCl2, 10% glycerol, room temperature 30 min, 2 nM each labeled RNA (multiplexed), 4.5% TBE native gel; conditions: protein: recombinant; tags: 6xHis-MBP-TEV at N-terminus, removed by TEV cleavage; label: internal fluorophore-UTP
[9] = label: internal fluorophore-UTP

With “GUACCAGGUAUGUGAUGACAUCAGCCGACGCCUGGCACUGCUGCAGGAACAGUGGGCUGGAGGAAAGUUGUCAAUACCUGUAAAGAAGAGAAUGGCUCUACUGGUGCAAGAGCUUUCAAGCCACCGGUGGGACGCAGCAGAUGACAUCCACCGCUCCCUCAUGGUUGACCAUGUGACUGAGGUCAGUCAGUGGAUGGUAGGAGUUAAAAGAUUAAUUGCAGAAAAGAGGAGUCUGUUUUCAGAGGAGGCAGCCAAUGAAGAGAAAUCUGCAGCCACAGCUGAGAAGAACCAUACCAUACCAGGCUUCCAGCAGGCUUCAUAAUCCUCGGUUCCCCAGACUCACCGGACACCAUCUCCU [SRA]” the Kd [1] was 100 nM, the Kd [2] was 300 nM and the Kd [3] was 950 nM.

“GCGAGGAGCCUUUCAUCCGAAGGCGGGACGAUGCCGGAUAAUCGGCAGCCGAGGAACCGGCAGCCGAGGAUCCGCUCCGGGAACGAGCCUCGUUCCGCGCCCGCCAUGGAACCGGAUGGUCGCGGUGCCUGGGCCCACAGUCGCGCCGCGCUCGACCGCCUGGAGAAGCUGCUGCGCUGCUCGCGUUGUACUAACAUUCUGAGAGAGCCUGUGUGUUUAGGAGGAA [BARD1 mRNA fragment]” gave a Kd [1] of 210 nM.

With “GGGCUGCGGAUACCUGGUUUUAUUAUUUUUUCUUUGCCCAACGGGGCCGUGGAUACCUGCCUUUUAAUUCUUUUUUAUUCGCCCAUCGGGGCCGCGGAUACCUGCUUUUUAUUUUUUUUUCCUUAGCCCAUCGGGGUAUCGGAUACCUGCUGAUUCCCUUCCCCUCUGAACCCCCAACACUCUGGCCCAUCGGGGUGACGGAUAUCUGCUUUUUAAAAAUUUUCUUUUUUUGGCCCAUCGGGGCUUCGGAUACCUGCUUUUUUUUUUUUUAUUUUUCCUUGCCCAUCGGGGCCUCGGAUACCUGCUUUAAUUUUUGUUUUUCUGGCCCAUCGGGGCCGCGGAUACCUGCUUUGAUUUUUUUUUUUCAUCGCCCAUCGGUGCU [XIST A-full]” the Kd [1] was 100 nM, the Kd [2] was 120 nM and the Kd [3] was 230 nM.

B1: BARD1 mRNA fragment (structured_RNA)
RNA: GCGAGGAGCCUUUCAUCCGAAGGCGGGACGAUGCCGGAUAAUCGGCAGCCGAGGAACCGGCAGCCGAGGAUCCGCUCCGGGAACGAGCCUCGUUCCGCGCCCGCCAUGGAACCGGAUGGUCGCGGUGCCUGGGCCCACAGUCGCGCCGCGCUCGACCGCCUGGAGAAGCUGCUGCGCUGCUCGCGUUGUACUAACAUUCUGAGAGAGCCUGUGUGUUUAGGAGGAA
B1 gave a Kd [4] of 550 ± 30 nM and a Kd [5] of 2300 ± 500 nM.

B2: XIST A1-4 (structured_RNA)
RNA: GCUGCGGAUACCUGGUUUUAUUAUUUUUUCUUUGCCCAACGGGGCCGUGGAUACCUGCCUUUUAAUUCUUUUUUAUUCGCCCAUCGGGGCCGCGGAUACCUGCUUUUUAUUUUUUUUUCCUUAGCCCAUCGGGGUAUCGGAUACCUGCUGAUUCCCUUCCCCUCUGAACCCCCAACACUCUGGCCCAUCG
With B2 the Kd [6, 9] was 71 ± 4 nM.

B3: XIST A4-6 (structured_RNA)
RNA: GCCGCGGAUACCUGCUUUUUAUUUUUUUUUCCUUAGCCCAUCGGGGUAUCGGAUACCUGCUGAUUCCCUUCCCCUCUGAACCCCCAACACUCUGGCCCAUCGGGGUGACGGAUAUCUGCUUUUUAAAAAUUUUCUUUUUUUGGCCCAUCGGGGCUUCGGAUACCUGCUUUUUUUUUUUUUAUUUUUCCUUGCCCAUCGGGG
B3 showed a Kd [7] of 132 ± 10 nM.

B4: XIST A5-8 (structured_RNA)
RNA: GCCCAUCGGGGUGACGGAUAUCUGCUUUUUAAAAAUUUUCUUUUUUUGGCCCAUCGGGGCUUCGGAUACCUGCUUUUUUUUUUUUUAUUUUUCCUUGCCCAUCGGGGCCUCGGAUACCUGCUUUAAUUUUUGUUUUUCUGGCCCAUCGGGGCCGCGGAUACCUGCUU
B4 gave a Kd [8] of 127 ± 4 nM.

B5: XIST A6-9 (structured_RNA)
RNA: GGCUUCGGAUACCUGCUUUUUUUUUUUUUAUUUUUCCUUGCCCAUCGGGGCCUCGGAUACCUGCUUUAAUUUUUGUUUUUCUGGCCCAUCGGGGCCGCGGAUACCUGCUUUGAUUUUUUUUUUUCAUCGCCCAUCGGUGCU
For B5, the Kd [7] was 185 ± 9 nM.

B6: XIST A6-9+ (structured_RNA)
RNA: GGCUUCGGAUACCUGCUUUUUUUUUUUUUAUUUUUCCUUGCCCAUCGGGGCCUCGGAUACCUGCUUUAAUUUUUGUUUUUCUGGCCCAUCGGGGCCGCGGAUACCUGCUUUGAUUUUUUUUUUUCAUCGCCCAUCGGUGCUUUUUAUGGAUGAAAAAAUGUUGGUUUUGUGGGUUGUUGCACUCUCUGGAAUAUCUACACUUUUUUUUGCUGCUGAUCAUUUGGUGG
Work on B6 yielded a Kd ([6]; label: internal fluorophore-UTP (EMSA)) of 48 ± 5 nM.

B7: XIST A6-8 (trimer) (structured_RNA)
RNA: GGCCCAUCGGGGCUUCGGAUACCUGCUUUUUUUUUUUUUAUUUUUCCUUGCCCAUCGGGGCCUCGGAUACCUGCUUUAAUUUUUGUUUUUCUGGCCCAUCGGGGCCGCGGAUACCUGCUU
B7 gave a Kd [6, 9] of 288 ± 39 nM.

B8: XIST A7-8 (dimer) (structured_RNA)
RNA: GUUGCCCAUCGGGGCCUCGGAUACCUGCUUUAAUUUUUGUUUUUCUGGCCCAUCGGGGCCGCGGAUACCUGCUU
With B8 the Kd [6, 9] was 248 ± 68 nM.

B9: tRNA-Cys (structured_RNA)
RNA: GGGGGUAUAGCUCAGGGGUAGAGCAUUUGACUGCAAAUCAAGAGGUCCCUGAUUCAAAUCCAGGUGCCCCCUCCAAGCUUG
B9 showed a Kd [6, 9] of 245 ± 78 nM.

— publication PMC10870365, “Dissection of protein and RNA regions required for SPEN binding to XIST A-repeat RNA”
